Assay: HPLC peptide recovery before and after freeze-drying
Settings: set specification 0.40-0.60 mg/mL for neoantigens, 0.2-0.3 mg/mL for A16L
Description: The composition prepared as described in Example 4, containing 14 neoantigens and the A16L T-helper peptide, was subjected to HPLC analysis to evaluate the peptide stability before and after freeze-drying.
Experimental Conditions: • IPQC Solutions: Dilute the IPQC solutions with Methanol and then with Mobile Phase A, e.g. as follows: • 100 mg In-Process Testing Solution • +450 μL Methanol, mix • +450 μL Mobile Phase A, mix • Mix by vortexing. Samples containing lipids will be slightly hazy. Dilution factor=10×. • Lyophilisates (for Release and Stability Testing): Solubilize the lyophilisate with Ultrapure lab water. Add 3-4 glass beads and vortex vigorously for 1 minute to assure complete homogenization. Dilute the solution with Methanol and subsequently with Mobile Phase A, e.g. as follows: • 100 mg In-Process Testing Solution • +450 μL Methanol, mix • +450 μL Mobile Phase A, mix • Mix by vortexing. The sample preparations will be slightly hazy. Dilution factor=20×.
The dried preparations were solubilized in water for HPLC analysis. T=0 is the day in which the samples were removed from the freeze-dryer. T=1M and T=3M are 1 month and 3 months after T=0, respectively, with the dried preparation having been stored at −20° C.

Sequence | Peptide concentration relative to set specification
CGTAFFINFIAIYHHASRAIPFGTMVA (Mut36) [Mut 36] | consistently outside the set specification
IPSGTTILNCFHDVLSGKLSGGSPGVP (Mut29A) [Mut 29a] | outside the set specification
VVDRNPQFLDPVLAYLMKGLCEKPLAS (Mut17) [Mut 17] | outside the set specification

Reference: patent US20200230057A1, “Pharmaceutical Compositions, Methods for Preparation using Lipid Vesicle Particles of Defined Size, and Uses Thereof” (IMMUNOVACCINE TECHNOLOGIES INC., priority 2017, published 2020)
